According to patent US20150274841A1 (DYAX, published 2015):

Experiments:
[1] = molecular target: T1, plasma kallikrein catalytic domain Mutant 2 (R551A, Q553A, Y555A, T558A, R560A) (human, UniProt P03952 391-638); assay: Ki,app; IgG inhibition of PKal catalytic domain cleavage of a substrate peptide, Morrison fit
T1 construct: Expressed in Pichia pastoris
Description: (§1) Briefly, PKal and a Fab at various concentrations are incubated together for 1 hour at 30° C. A substrate peptide (cleavable by PKal) is then added to this PKal-Fab mixture. The rate of substrate peptide cleavage/proteolysis is then measured, and plotted against the concentrations of the Fab. This plot is then fit to the Morrison equation, which calculates the K_{i,app} value. The results thus obtained are shown in FIGS. 5A-5D and Table 3 below:
(§2) The inhibitory activity of X115-F02 against the wild-type PKal and the mutants were carried out using the method described in Example 3 above and the K_{i,app} values were determined.

[2] = molecular target: T2, plasma kallikrein catalytic domain Mutant 4 (N396A, S398A, W399A) (human, UniProt P03952 391-638); assay: enzyme inhibition assay: rate (F/s) of substrate peptide cleavage by PKal against [IgG] (nM), fitted to the Morrison equation; apparent Ki (Ki,app)
T2 construct: Expressed in Pichia pastoris
T2 sequence (P03952 391-638 N396A/S398A/W399A): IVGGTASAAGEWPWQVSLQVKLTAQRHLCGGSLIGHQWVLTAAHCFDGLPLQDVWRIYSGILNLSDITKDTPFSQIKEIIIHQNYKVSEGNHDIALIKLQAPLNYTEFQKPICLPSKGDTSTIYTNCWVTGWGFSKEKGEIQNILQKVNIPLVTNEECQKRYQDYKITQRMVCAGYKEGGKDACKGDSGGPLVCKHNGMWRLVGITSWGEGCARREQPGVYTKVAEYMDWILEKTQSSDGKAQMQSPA
Description: as §1, §2

[3] = molecular target: T3, plasma kallikrein catalytic domain Mutant 1 (S478A, N481A, S506A, Y507A) (human, UniProt P03952 391-638); assay: as above
T3 construct: Expressed in Pichia pastoris
T3 sequence (P03952 391-638 S478A/N481A/C503S/S506A/K507A limits assumed): as the sequence (P03952 391-638 N396A/S398A/W399A) above, with A6N, A8S, A9W, S88A, N91A, C113S, S116A, K117A counted along it
Description: as §1, §2

[4] = molecular target: T4, wild type plasma kallikrein catalytic domain (recombinant, Pichia pastoris) (human, UniProt P03952 391-638); assay: as above
T4 construct: also called wild-type PKal
T4 sequence (P03952 391-638): as the sequence (P03952 391-638 N396A/S398A/W399A) above, with A6N, A8S, A9W counted along it
Description: as §1, §2

[5] = molecular target: T1, plasma kallikrein catalytic domain …; assay: as above
Description: as §1, §2

T1 sequence (P03952 391-638 R551A/Q553A/Y555A/T558A/R560A): as the sequence (P03952 391-638 N396A/S398A/W399A) above, with A6N, A8S, A9W, R161A, Q163A, Y165A, T168A, R170A counted along it

B1: X115-F02 (antibody, human IgG1, kappa, V domains shown)
VH: EVQLLESGGGLVQPGGSLRLSCAASGFTFSHYIMMWVRQAPGKGLEWVSGIYSSGGITVYADSVKGRFTISRDNSKNTLYLQMNSLRAEDTAVYYCAYRRIGVPRRDEFDIWGQGTMVTVSS
VL: DIQMTQSPSTLSASVGDRVTITCRASQSISSWLAWYQQKPGKAPKLLIYKASTLESGVPSRFSGSGSGTEFTLTISSLQPDDFATYYCQQYNTYWTFGQGTKVEIKR
notes: also called mutant X115-F02
Which “fold reduction of potency (Ki,app) against wild-type PKal” value [1] does the source give for B1 here?
Its value is roughly 65 fold.

And the Ki [2]?
The Ki was 0.1 nM.

What about the Ki [3] of the same binder?
The Ki was 0.14 nM.

What about the Ki [4] of the same binder?
The Ki was 0.09 nM.

And the Ki [5]?
Its Ki is 5.9 nM.
